Data as given in publication PMC7846482 (The Journal of Biological Chemistry, 2021).

Biological target: T1, SΔTM deglycosylated by PNGase F (trimeric spike protein without transmembrane domain) (SARS-CoV-2 Wuhan-Hu-1, UniProt P0DTC2, stabilised, deglycosylated by PNGase F)
T1 construct: also called nonglycosylated SΔTM; deglycosylated spike protein
Experiment: western blotting
Conditions: both partners purified

B1: mouse anti-SARS-CoV-2 spike monoclonal antibody clone R31 (antibody, V domains shown)
VH: QVQLQQSGAELVRPGTSVKISCKASYTFTNYWLAWVKQRPGHGLEWIGDIYPGGAYTNFNEKFKGKATLTADTSSSTAYMQLSSLTSEDSAVYFCARDGHYGYAMDYWGQGTSVTVSS
VL: DIVMTQAAFSNPVTLGTSASISCRSSKSLLHSNGITYLYWYLQKPGQSPQLLIYQMSDLASGVPDRFSSSGSGTDFTLRISRVEAEDVGVYYCAQNLELPRTFGGGIKLEIK
binding result: binds
